FireProtDB (doi:10.1074/jbc.273.1.167)
Several values for one entry are separate records, joined by “and”; a condition that tells them apart may be missing. Equal entries are not always repeated.

Details: Bos taurus, pH 7, Thermal, DSC, phosphate 10 mM, transition: 3, reversible: no, whole UniProt chain shown

B1: Tubulin--tyrosine ligase wild type, P38584 (protein)
chain: MYTFVVRDENSSVYAEVSRLLLATGHWKRLRRDNPRFNLMLGERNRLPFGRLGHEPGLMQLVNYYRGADKLCRKASLVKLIKTSPELAESCTWFPESYVIYPTNLKTPVAPAQDGIHPPLHSSRTDEREFFLASYNRKKEEGEGNVWIAKSSAGAKGEGILISSDATELLDFIDNQGQVHVIQKYLERPLLLEPGHRKFDIRSWVLVDHQFNIYLYREGVLRTASEPYHMDNFQDKTCHLTNHCIQKEYSKNYGKYEEGNEMFFEAFNRYLTSALNITLESSILLQIKHIIRSCLMSVEPAISTKHLPYQSFQLFGFDFMVDEELKVWLIEVNGAPACAQKLYAELCQGIVDIAIASVFPPPDAEQQPPQPATFIKL
Mg++ 30 nM
  Tm: 51.1 °C
  unfolding enthalpy (calorimetric): 160 kcal/mol
Mg++ 35 nM
  unfolding enthalpy (calorimetric): 38 kcal/mol and 84 kcal/mol
Mg++ 40 nM
  unfolding enthalpy (calorimetric): 31 kcal/mol and 84 kcal/mol
Mg++ 182 nM
  Tm: 49.9 °C
  unfolding enthalpy (calorimetric): 158 kcal/mol
Mg++ 2.3 micro M
  Tm: 54.6 °C
  unfolding enthalpy (calorimetric): 173 kcal/mol
Mg++ 4.5 micro M
  Tm: 54.8 °C
  unfolding enthalpy (calorimetric): 173 kcal/mol
Mg++ 160 micro M
  Tm: 55.8 °C
  unfolding enthalpy (calorimetric): 150 kcal/mol
Mg++ 280 micro M
  Tm: 55.6 °C and 54.2 °C
  unfolding enthalpy (calorimetric): 186 kcal/mol and 200 kcal/mol
